Reference: patent publication US20210388110A1 (published 2021)

Target: T1, soluble human CD3ε chain (human, UniProt P07766 23-126, limits assumed)
T1 construct: the text says soluble human CD3ε chain; also called human CD3 epsilon chain
Assay: SPR (Biacore)

T1 sequence (P07766 23-126 limits assumed): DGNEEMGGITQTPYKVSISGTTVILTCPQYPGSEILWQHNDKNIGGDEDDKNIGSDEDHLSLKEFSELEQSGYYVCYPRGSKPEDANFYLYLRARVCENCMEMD

Row | Binder | Kd [nM]
1 | TR01H082-E22Hh/none-Hi-Kn010G3/L0263-k0 (antibody, human IgG1, kappa, L234A L235A, N297A, single-arm) heavy: QVQLVESGGGLVQPGRSLRLSCAASGFTFSNAWMHWVRQAPGKGLEWVAQIKDKSQNYATYYAESVKGRFTISRDDSKNSLYLQMNSLKTEDTAVYYCRYVHYAAGYGVDAWGQGTTVTVSSASTKGPSVFPLAPSSKSTSGGTAALGCLVKDYFPEPVTVSWNSGALTSGVHTFPAVLQSSGLYSLSSVVTVPSSSLGTQTYICNVNHKPSNTKVDKKVEPKSCDKTHTCPPCPAPEAAGGPSVFLFPPKPKDTLMISRTPEVTCVVVDVSHEDPEVKFNWYVDGVEVHNAKTKPREEQYASTYRVVSVLTVLHQDWLNGKEYKCKVSNKALPAPIEKTISKAKGQPREPQVYTLPPSRCELTKNQVSLSCAVKGFYPSDIAVEWESNGQPENNYKTTPPVLDSDGSFFLVSKLTVDKSRWQQGNVFSCSVMHEALHNHYTQKSLSLSPDYKDDDDK EPKSSDKTHTCPPCPAPELLGGPSVFLFPPKPKDTLMISRTPEVTCVVVDVSHEDPEVKFNWYVDGVEVHNAKTKPREEQYNSTYRVVSVLTVLHQDWLNGKEYKCKVSNKALPAPIEKTISKAKGQPREPQVCTLPPSRDELTKNQVSLWCLVKGFYPSDIAVEWESNGQPENNYKTTPPVLDSDGSFFLYSKLTVDKSRWQQGNVFSCSVMHEALHNRYTQKSLSLSP light: DIVMTQSPLSLPVTPGEPASISCRSSQSPVHSNRNTYIHWYQQKPGQAPRLLIYKVSNRFSGVPDRFSGSGSGTDFTLKISRVEAEDVGVYYCAQGTQVPYTFGQGTKLEIKRTVAAPSVFIFPPSDEQLKSGTASVVCLLNNFYPREAKVQWKVDNALQSGNSQESVTEQDSKDSTYSLSSTLTLSKADYEKHKVYACEVTHQGLSSPVTKSFNRGEC | 30.9
2 | TR01H082-E22Hh/none-Hi-Kn010G3/TR01L023-k0 (antibody, human IgG1, kappa, L234A L235A, N297A, single-arm) heavy: QVQLVESGGGLVQPGRSLRLSCAASGFTFSNAWMHWVRQAPGKGLEWVAQIKDKSQNYATYYAESVKGRFTISRDDSKNSLYLQMNSLKTEDTAVYYCRYVHYAAGYGVDAWGQGTTVTVSSASTKGPSVFPLAPSSKSTSGGTAALGCLVKDYFPEPVTVSWNSGALTSGVHTFPAVLQSSGLYSLSSVVTVPSSSLGTQTYICNVNHKPSNTKVDKKVEPKSCDKTHTCPPCPAPEAAGGPSVFLFPPKPKDTLMISRTPEVTCVVVDVSHEDPEVKFNWYVDGVEVHNAKTKPREEQYASTYRVVSVLTVLHQDWLNGKEYKCKVSNKALPAPIEKTISKAKGQPREPQVYTLPPSRCELTKNQVSLSCAVKGFYPSDIAVEWESNGQPENNYKTTPPVLDSDGSFFLVSKLTVDKSRWQQGNVFSCSVMHEALHNHYTQKSLSLSPDYKDDDDK EPKSSDKTHTCPPCPAPELLGGPSVFLFPPKPKDTLMISRTPEVTCVVVDVSHEDPEVKFNWYVDGVEVHNAKTKPREEQYNSTYRVVSVLTVLHQDWLNGKEYKCKVSNKALPAPIEKTISKAKGQPREPQVCTLPPSRDELTKNQVSLWCLVKGFYPSDIAVEWESNGQPENNYKTTPPVLDSDGSFFLYSKLTVDKSRWQQGNVFSCSVMHEALHNRYTQKSLSLSP light: DIVMTQSPLSLPVTPGEPASISCRSSQSPVHSNRNTYLHWYLQKPGQSPQLLIYKVSNRFSGVPDRFSGSGSGTDFTLKISRVEAEDVGVYYCTQGTQVPYTFGQGTKLEIKRTVAAPSVFIFPPSDEQLKSGTASVVCLLNNFYPREAKVQWKVDNALQSGNSQESVTEQDSKDSTYSLSSTLTLSKADYEKHKVYACEVTHQGLSSPVTKSFNRGEC | 42.5
3 | TR01H082-E22Hh/none-Hi-Kn010G3/TR01L018-k0 (antibody, human IgG1, kappa, L234A L235A, N297A, single-arm) heavy: QVQLVESGGGLVQPGRSLRLSCAASGFTFSNAWMHWVRQAPGKGLEWVAQIKDKSQNYATYYAESVKGRFTISRDDSKNSLYLQMNSLKTEDTAVYYCRYVHYAAGYGVDAWGQGTTVTVSSASTKGPSVFPLAPSSKSTSGGTAALGCLVKDYFPEPVTVSWNSGALTSGVHTFPAVLQSSGLYSLSSVVTVPSSSLGTQTYICNVNHKPSNTKVDKKVEPKSCDKTHTCPPCPAPEAAGGPSVFLFPPKPKDTLMISRTPEVTCVVVDVSHEDPEVKFNWYVDGVEVHNAKTKPREEQYASTYRVVSVLTVLHQDWLNGKEYKCKVSNKALPAPIEKTISKAKGQPREPQVYTLPPSRCELTKNQVSLSCAVKGFYPSDIAVEWESNGQPENNYKTTPPVLDSDGSFFLVSKLTVDKSRWQQGNVFSCSVMHEALHNHYTQKSLSLSPDYKDDDDK EPKSSDKTHTCPPCPAPELLGGPSVFLFPPKPKDTLMISRTPEVTCVVVDVSHEDPEVKFNWYVDGVEVHNAKTKPREEQYNSTYRVVSVLTVLHQDWLNGKEYKCKVSNKALPAPIEKTISKAKGQPREPQVCTLPPSRDELTKNQVSLWCLVKGFYPSDIAVEWESNGQPENNYKTTPPVLDSDGSFFLYSKLTVDKSRWQQGNVFSCSVMHEALHNRYTQKSLSLSP light: DIVMTQSPLSLPVTPGEPASISCQASESPVHSNRNTYLHWYLQKPGQSPQLLIYKVSNRFSGVPDRFSGSGSGTDFTLKISRVEAEDVGVYYCGQGTQVPYTFGQGTKLEIKRTVAAPSVFIFPPSDEQLKSGTASVVCLLNNFYPREAKVQWKVDNALQSGNSQESVTEQDSKDSTYSLSSTLTLSKADYEKHKVYACEVTHQGLSSPVTKSFNRGEC | 47.2
4 | TR01H082-E22Hh/none-Hi-Kn010G3/L0264-k0 (antibody, human IgG1, kappa, L234A L235A, N297A, single-arm) heavy: QVQLVESGGGLVQPGRSLRLSCAASGFTFSNAWMHWVRQAPGKGLEWVAQIKDKSQNYATYYAESVKGRFTISRDDSKNSLYLQMNSLKTEDTAVYYCRYVHYAAGYGVDAWGQGTTVTVSSASTKGPSVFPLAPSSKSTSGGTAALGCLVKDYFPEPVTVSWNSGALTSGVHTFPAVLQSSGLYSLSSVVTVPSSSLGTQTYICNVNHKPSNTKVDKKVEPKSCDKTHTCPPCPAPEAAGGPSVFLFPPKPKDTLMISRTPEVTCVVVDVSHEDPEVKFNWYVDGVEVHNAKTKPREEQYASTYRVVSVLTVLHQDWLNGKEYKCKVSNKALPAPIEKTISKAKGQPREPQVYTLPPSRCELTKNQVSLSCAVKGFYPSDIAVEWESNGQPENNYKTTPPVLDSDGSFFLVSKLTVDKSRWQQGNVFSCSVMHEALHNHYTQKSLSLSPDYKDDDDK EPKSSDKTHTCPPCPAPELLGGPSVFLFPPKPKDTLMISRTPEVTCVVVDVSHEDPEVKFNWYVDGVEVHNAKTKPREEQYNSTYRVVSVLTVLHQDWLNGKEYKCKVSNKALPAPIEKTISKAKGQPREPQVCTLPPSRDELTKNQVSLWCLVKGFYPSDIAVEWESNGQPENNYKTTPPVLDSDGSFFLYSKLTVDKSRWQQGNVFSCSVMHEALHNRYTQKSLSLSP light: DIVMTQSPLSLPVTPGEPASISCRPSQSPVHSNRNTYLHWYQQKPGQAPRLLIYKVSNRFSGVPDRFSGSGSGTDFTLKISRVEAEDVGVYYCAQGTQVPYTFGQGTKLEIKRTVAAPSVFIFPPSDEQLKSGTASVVCLLNNFYPREAKVQWKVDNALQSGNSQESVTEQDSKDSTYSLSSTLTLSKADYEKHKVYACEVTHQGLSSPVTKSFNRGEC | 34.4

Now those with a lower Kd, led by results:

Row | Kd [nM] | Binder
5 | 22.9 | TR01H082-E22Hh/none-Hi-Kn010G3/L0267-k0 (antibody, human IgG1, kappa, L234A L235A, N297A, single-arm) heavy: QVQLVESGGGLVQPGRSLRLSCAASGFTFSNAWMHWVRQAPGKGLEWVAQIKDKSQNYATYYAESVKGRFTISRDDSKNSLYLQMNSLKTEDTAVYYCRYVHYAAGYGVDAWGQGTTVTVSSASTKGPSVFPLAPSSKSTSGGTAALGCLVKDYFPEPVTVSWNSGALTSGVHTFPAVLQSSGLYSLSSVVTVPSSSLGTQTYICNVNHKPSNTKVDKKVEPKSCDKTHTCPPCPAPEAAGGPSVFLFPPKPKDTLMISRTPEVTCVVVDVSHEDPEVKFNWYVDGVEVHNAKTKPREEQYASTYRVVSVLTVLHQDWLNGKEYKCKVSNKALPAPIEKTISKAKGQPREPQVYTLPPSRCELTKNQVSLSCAVKGFYPSDIAVEWESNGQPENNYKTTPPVLDSDGSFFLVSKLTVDKSRWQQGNVFSCSVMHEALHNHYTQKSLSLSPDYKDDDDK EPKSSDKTHTCPPCPAPELLGGPSVFLFPPKPKDTLMISRTPEVTCVVVDVSHEDPEVKFNWYVDGVEVHNAKTKPREEQYNSTYRVVSVLTVLHQDWLNGKEYKCKVSNKALPAPIEKTISKAKGQPREPQVCTLPPSRDELTKNQVSLWCLVKGFYPSDIAVEWESNGQPENNYKTTPPVLDSDGSFFLYSKLTVDKSRWQQGNVFSCSVMHEALHNRYTQKSLSLSP light: DIVMTQSPLSLPVTPGEPASISCRPSQSPVHSNRNTYLHWYQQKPGQAPRLLIYKVSNRFSGVPDRFSGSGSGTDFTLKISRVEAEDVGVYYCVQGTQVPYTFGQGTKLEIKRTVAAPSVFIFPPSDEQLKSGTASVVCLLNNFYPREAKVQWKVDNALQSGNSQESVTEQDSKDSTYSLSSTLTLSKADYEKHKVYACEVTHQGLSSPVTKSFNRGEC
6 | 22.9 | TR01H082-E22Hh/none-Hi-Kn010G3/L0266-k0 (antibody, human IgG1, kappa, L234A L235A, N297A, single-arm) heavy: QVQLVESGGGLVQPGRSLRLSCAASGFTFSNAWMHWVRQAPGKGLEWVAQIKDKSQNYATYYAESVKGRFTISRDDSKNSLYLQMNSLKTEDTAVYYCRYVHYAAGYGVDAWGQGTTVTVSSASTKGPSVFPLAPSSKSTSGGTAALGCLVKDYFPEPVTVSWNSGALTSGVHTFPAVLQSSGLYSLSSVVTVPSSSLGTQTYICNVNHKPSNTKVDKKVEPKSCDKTHTCPPCPAPEAAGGPSVFLFPPKPKDTLMISRTPEVTCVVVDVSHEDPEVKFNWYVDGVEVHNAKTKPREEQYASTYRVVSVLTVLHQDWLNGKEYKCKVSNKALPAPIEKTISKAKGQPREPQVYTLPPSRCELTKNQVSLSCAVKGFYPSDIAVEWESNGQPENNYKTTPPVLDSDGSFFLVSKLTVDKSRWQQGNVFSCSVMHEALHNHYTQKSLSLSPDYKDDDDK EPKSSDKTHTCPPCPAPELLGGPSVFLFPPKPKDTLMISRTPEVTCVVVDVSHEDPEVKFNWYVDGVEVHNAKTKPREEQYNSTYRVVSVLTVLHQDWLNGKEYKCKVSNKALPAPIEKTISKAKGQPREPQVCTLPPSRDELTKNQVSLWCLVKGFYPSDIAVEWESNGQPENNYKTTPPVLDSDGSFFLYSKLTVDKSRWQQGNVFSCSVMHEALHNRYTQKSLSLSP light: DIVMTQSPLSLPVTPGEPASISCRSSQPPVHSNRNTYLHWYQQKPGQAPRLLIYKVSNRFSGVPDRFSGSGSGTDFTLKISRVEAEDVGVYYCVQGTQVPYTFGQGTKLEIKRTVAAPSVFIFPPSDEQLKSGTASVVCLLNNFYPREAKVQWKVDNALQSGNSQESVTEQDSKDSTYSLSSTLTLSKADYEKHKVYACEVTHQGLSSPVTKSFNRGEC
